Experimental data from patent US20250163162A1.
One block for each binder: values may come before it.

Molecular target: T1, IL10Rα/IL2Rγ receptor (human) (UniProt Q13651)
T1 sequence (looked up) 1: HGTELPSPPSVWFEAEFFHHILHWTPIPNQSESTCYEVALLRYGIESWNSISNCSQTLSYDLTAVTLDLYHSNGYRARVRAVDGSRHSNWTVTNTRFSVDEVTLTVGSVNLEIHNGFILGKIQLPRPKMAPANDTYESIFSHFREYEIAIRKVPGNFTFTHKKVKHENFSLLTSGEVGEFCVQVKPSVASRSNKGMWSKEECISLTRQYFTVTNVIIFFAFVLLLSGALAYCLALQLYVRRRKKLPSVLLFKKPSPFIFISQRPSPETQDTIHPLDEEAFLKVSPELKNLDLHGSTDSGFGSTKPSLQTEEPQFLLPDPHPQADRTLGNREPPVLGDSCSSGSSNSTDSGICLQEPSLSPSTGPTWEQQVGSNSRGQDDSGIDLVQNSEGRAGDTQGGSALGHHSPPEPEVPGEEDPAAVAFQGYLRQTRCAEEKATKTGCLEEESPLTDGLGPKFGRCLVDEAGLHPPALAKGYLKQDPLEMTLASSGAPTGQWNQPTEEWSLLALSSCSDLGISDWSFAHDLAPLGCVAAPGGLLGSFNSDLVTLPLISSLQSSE
T1 sequence (looked up) 2: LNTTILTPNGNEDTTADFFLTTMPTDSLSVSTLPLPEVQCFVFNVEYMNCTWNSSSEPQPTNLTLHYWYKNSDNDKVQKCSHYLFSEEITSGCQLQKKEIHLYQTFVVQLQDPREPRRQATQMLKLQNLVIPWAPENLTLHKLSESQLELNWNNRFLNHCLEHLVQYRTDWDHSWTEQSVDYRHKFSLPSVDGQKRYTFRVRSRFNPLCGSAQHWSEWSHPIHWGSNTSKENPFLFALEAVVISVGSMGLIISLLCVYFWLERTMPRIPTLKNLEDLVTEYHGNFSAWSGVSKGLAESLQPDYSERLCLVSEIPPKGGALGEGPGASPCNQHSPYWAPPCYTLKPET
Assay: cell-based or functional assay

Granzyme A secretion, CD8 T cells, at 0 µM: 25200 pg/mL
Granzyme A secretion, CD8 T cells, at 0.0001 µM: 20600 pg/mL
Granzyme A secretion, CD8 T cells, at 0.001 µM: 25200 pg/mL
Granzyme A secretion, CD8 T cells, at 0.01 µM: 28100 pg/mL
Granzyme A secretion, CD8 T cells, at 0.1 µM: 29300 pg/mL
Granzyme A secretion, CD8 T cells, at 1 µM: 31000 pg/mL
Granzyme A secretion, CD8 T cells, at 10 µM: 31500 pg/mL
Granzyme A secretion, CD8 T cells, at 100 µM: 29900 pg/mL
Granzyme B secretion, CD8 T cells, at 0 µM: 77700 pg/mL
Granzyme B secretion, CD8 T cells, at 0.0001 µM: 68900 pg/mL
Granzyme B secretion, CD8 T cells, at 0.001 µM: 70600 pg/mL
Granzyme B secretion, CD8 T cells, at 0.01 µM: 71000 pg/mL
Granzyme B secretion, CD8 T cells, at 0.1 µM: 79300 pg/mL
Granzyme B secretion, CD8 T cells, at 1 µM: 112000 pg/mL
Granzyme B secretion, CD8 T cells, at 10 µM: 125000 pg/mL
Granzyme B secretion, CD8 T cells, at 100 µM: 106000 pg/mL
IFNγ secretion, CD8 T cells, at 0 µM: 122000 pg/mL
IFNγ secretion, CD8 T cells, at 0.0001 µM: 90100 pg/mL
IFNγ secretion, CD8 T cells, at 0.001 µM: 125000 pg/mL
IFNγ secretion, CD8 T cells, at 0.01 µM: 127000 pg/mL
IFNγ secretion, CD8 T cells, at 0.1 µM: 130000 pg/mL
IFNγ secretion, CD8 T cells, at 1 µM: 147000 pg/mL
IFNγ secretion, CD8 T cells, at 10 µM: 154000 pg/mL
IFNγ secretion, CD8 T cells, at 100 µM: 141000 pg/mL
IL-1β secretion, LPS treated monocytes, at 0 µM: 6240 pg/mL
IL-1β secretion, LPS treated monocytes, at 0 µM (LPS only): 6880 pg/mL
IL-1β secretion, LPS treated monocytes, at 0.0001 µM: 5890 pg/mL
IL-1β secretion, LPS treated monocytes, at 0.001 µM: 5390 pg/mL
IL-1β secretion, LPS treated monocytes, at 0.01 µM: 6020 pg/mL
IL-1β secretion, LPS treated monocytes, at 0.1 µM: 5240 pg/mL
IL-1β secretion, LPS treated monocytes, at 1 µM: 5680 pg/mL
IL-1β secretion, LPS treated monocytes, at 10 µM: 7120 pg/mL
IL-1β secretion, LPS treated monocytes, at 100 µM: 8780 pg/mL
IL-9 secretion, CD8 T cells, at 0 µM: 1350 pg/mL
IL-9 secretion, CD8 T cells, at 0.0001 µM: 1010 pg/mL
IL-9 secretion, CD8 T cells, at 0.001 µM: 1320 pg/mL
IL-9 secretion, CD8 T cells, at 0.01 µM: 1390 pg/mL
IL-9 secretion, CD8 T cells, at 0.1 µM: 1450 pg/mL
IL-9 secretion, CD8 T cells, at 1 µM: 1590 pg/mL
IL-9 secretion, CD8 T cells, at 10 µM: 2050 pg/mL
IL-9 secretion, CD8 T cells, at 100 µM: 1960 pg/mL
B1: hIL10Ra_VHH14 - hIL2Rg_VHH19, linker …, tag his (bispecific antibody, not shown: small tags and cut ends)
chain: QVQLQESGGGSVQAGGSLRLSCGASGYTYSSYCMGWFRQVPGKEREGVAVIDSDGSTSYADSVKGRFTISKDNGKNTLYLQMNSLKPEDTAMYYCAADLGHYRPPCGVLYLGMDYWGKGTQVTVSSGGSGGSGGSGQVQLQESGGGSVQAGGSLRLSCTASGFTFDDREMNWYRQAPGNECELVSTISSDGSTYYADSVKGRFTISQDNAKNTVYLQMDSVKPEDTAVYYCAADFMIAIQAPGAGCWGQGTQVTVSS

Granzyme A secretion, CD8 T cells, at 0 µM: 25200 pg/mL
Granzyme A secretion, CD8 T cells, at 0.0001 µM: 20800 pg/mL
Granzyme A secretion, CD8 T cells, at 0.001 µM: 23000 pg/mL
Granzyme A secretion, CD8 T cells, at 0.01 µM: 25300 pg/mL
Granzyme A secretion, CD8 T cells, at 0.1 µM: 27100 pg/mL
Granzyme A secretion, CD8 T cells, at 1 µM: 28700 pg/mL
Granzyme A secretion, CD8 T cells, at 10 µM: 29400 pg/mL
Granzyme A secretion, CD8 T cells, at 100 µM: 25600 pg/mL
Granzyme B secretion, CD8 T cells, at 0 µM: 77700 pg/mL
Granzyme B secretion, CD8 T cells, at 0.0001 µM: 54500 pg/mL
Granzyme B secretion, CD8 T cells, at 0.001 µM: 50900 pg/mL
Granzyme B secretion, CD8 T cells, at 0.01 µM: 54100 pg/mL
Granzyme B secretion, CD8 T cells, at 0.1 µM: 62300 pg/mL
Granzyme B secretion, CD8 T cells, at 1 µM: 77600 pg/mL
Granzyme B secretion, CD8 T cells, at 10 µM: 90000 pg/mL
Granzyme B secretion, CD8 T cells, at 100 µM: 77900 pg/mL
IFNγ secretion, CD8 T cells, at 0 µM: 122000 pg/mL
IFNγ secretion, CD8 T cells, at 0.0001 µM: 94700 pg/mL
IFNγ secretion, CD8 T cells, at 0.001 µM: 110000 pg/mL
IFNγ secretion, CD8 T cells, at 0.01 µM: 117000 pg/mL
IFNγ secretion, CD8 T cells, at 0.1 µM: 122000 pg/mL
IFNγ secretion, CD8 T cells, at 1 µM: 144000 pg/mL
IFNγ secretion, CD8 T cells, at 10 µM: 149000 pg/mL
IFNγ secretion, CD8 T cells, at 100 µM: 127000 pg/mL
IL-1β secretion, LPS treated monocytes, at 0 µM: 6240 pg/mL
IL-1β secretion, LPS treated monocytes, at 0 µM (LPS only): 6880 pg/mL
IL-1β secretion, LPS treated monocytes, at 0.0001 µM: 6290 pg/mL
IL-1β secretion, LPS treated monocytes, at 0.001 µM: 5850 pg/mL
IL-1β secretion, LPS treated monocytes, at 0.01 µM: 6100 pg/mL
IL-1β secretion, LPS treated monocytes, at 0.1 µM: 4960 pg/mL
IL-1β secretion, LPS treated monocytes, at 1 µM: 5780 pg/mL
IL-1β secretion, LPS treated monocytes, at 10 µM: 6420 pg/mL
IL-1β secretion, LPS treated monocytes, at 100 µM: 7840 pg/mL
IL-9 secretion, CD8 T cells, at 0 µM: 1350 pg/mL
IL-9 secretion, CD8 T cells, at 0.0001 µM: 951 pg/mL
IL-9 secretion, CD8 T cells, at 0.001 µM: 1010 pg/mL
IL-9 secretion, CD8 T cells, at 0.01 µM: 1140 pg/mL
IL-9 secretion, CD8 T cells, at 0.1 µM: 1090 pg/mL
IL-9 secretion, CD8 T cells, at 1 µM: 1440 pg/mL
IL-9 secretion, CD8 T cells, at 10 µM: 1600 pg/mL
IL-9 secretion, CD8 T cells, at 100 µM: 1700 pg/mL
B2: hIL10Ra_VHH14 - hIL2Rg_VHH19, linker GGSGGS, tag his (bispecific antibody, not shown: small tags and cut ends)
chain: QVQLQESGGGSVQAGGSLRLSCGASGYTYSSYCMGWFRQVPGKEREGVAVIDSDGSTSYADSVKGRFTISKDNGKNTLYLQMNSLKPEDTAMYYCAADLGHYRPPCGVLYLGMDYWGKGTQVTVSSGGSGGSQVQLQESGGGSVQAGGSLRLSCTASGFTFDDREMNWYRQAPGNECELVSTISSDGSTYYADSVKGRFTISQDNAKNTVYLQMDSVKPEDTAVYYCAADFMIAIQAPGAGCWGQGTQVTVSS
